Results published in publication PMC4772074 (Biochemistry, 2015).

Molecular target: the molecule itself
Assay: SEC-MALS

B1: E. coli CheA (enzyme)
chain: MSMDISDFYQTFFDEADELLADMEQHLLVLQPEAPDAEQLNAIFRAAHSIKGGAGTFGFSVLQETTHLMENLLDEARRGEMQLNTDIINLFLETKDIMQEQLDAYKQSQEPDAASFDYICQALRQLALEAKGETPSAVTRLSVVAKSEPQDEQSRSQSPRRIILSRLKAGEVDLLEEELGHLTTLTDVVKGADSLSAILPGDIAEDDITAVLCFVIEADQITFETVEVSPKISTPPVLKLAAEQAPTGRVEREKTTRSNESTSIRVAVEKVDQLINLVGELVITQSMLAQRSSELDPVNHGDLITSMGQLQRNARDLQESVMSIRMMPMEYVFSRYPRLVRDLAGKLGKQVELTLVGSSTELDKSLIERIIDPLTHLVRNSLDHGIELPEKRLAAGKNSVGNLILSAEHQGGNICIEVTDDGAGLNRERILAKAASQGLTVSENMSDDEVAMLIFAPGFSTAEQVTDVSGRGVGMDVVKRNIQKMGGHVEIQSKQGTGTTIRILLPLTLAILDGMSVRVADEVFILPLNAVMESLQPREADLHPLAGGERVLEVRGEYLPIVELWKVFNVAGAKTEATQGIVVILQSGGRRYALLVDQLIGQHQVVVKNLESNYRKVPGISAATILGDGSVALIVDVSALQAINREQRMANTAA
  stoichiometry N: 2
